Data: patent EP2360247A1
“And” between values parts separate entries of the source, which are not always exact repeats. Equal entries are not always repeated.

Legend:
Test in all cases: cell-based or functional assay
[1] = target: subtilisin 309 variant S99SD+S99A+N155NR (B. Lentus) (UniProt P29600)
[2] = target: subtilisin 309 variant L42LN (B. Lentus) (UniProt P29600)
[3] = target: subtilisin 309 variant S99D+S101R+S103A+V104I+G160S+A194P+V199M+V205I+*216aE (B. Lentus) (UniProt P29600)
[4] = target: subtilisin 309 variant S99D+S101R+S103A+V104I+G160S+A194P+V199M+V205I+*216aD (B. Lentus) (UniProt P29600)
[5] = target: subtilisin 309 variant S99SD+S99A+N155ND (B. Lentus) (UniProt P29600)
[6] = target: subtilisin 309 variant S99SD+S99A+S216SDP (B. Lentus) (UniProt P29600)
[7] = target: subtilisin 309 variant S99SD+S99A+N155NA (B. Lentus) (UniProt P29600)
[8] = target: Savinase® (subtilisin 309, BLSAVI) (B. Lentus) (UniProt P29600)
[9] = target: subtilisin 309 variant L217LP+S99SD+S99A (B. Lentus) (UniProt P29600)

trypsin inhibitor type IV-0 (Sigma T-1886) (from UniProt P10184 69-517)
Residual Activity (%) [1]: 6.5%
Residual Activity (%) [2]: 69.2%
Residual Activity (%) [3]: 25.4%
Residual Activity (%) [4]: 24%
Residual Activity (%) [5]: 10.7% and 7.1%
Residual Activity (%) [6]: 35%
Residual Activity (%) [7]: 7.4%
Residual Activity (%) [8]: < 5%
Residual Activity (%) [9]: 97%
